The results in this text go back to publication PMC12009303, “Structural characterization of antibody-responses following Zolgensma treatment for AAV capsid engineering to expand patient cohorts” (Nature Communications, 2025).

The test deals with T1, AAV9 capsid (adeno-associated virus serotype 9, UniProt Q6JC40).
T1 construct: also called wtAAV9; AAV9 vector; copies: 60
Briefly: far-Western, overlay or dot blot; native dot immunoblot: native capsids adsorbed onto nitrocellulose; human mAbs at ~1 µg/ml in PBS with 6% milk, 0.1% Tween-20, 1 h; anti-human-HRP. The following applies: both partners purified.

B1: mAb3-7 (antibody, V domains shown)
VH: QVQLQESGPGLVKPSETLSLTCTVSGGSISNYYWNWIRQPPGKGLEWIGYVHYSGSTNYNPSLKSRVSVSVDTSKNQFSLNLGSVTAADTAVYYCARQSRSYYNEVITDPKYNFDYWGQGTLVTVSS
VL: QSALTQPASVSGSPGQSITISCTGTSSDVGGYDYVSWYQQHPGKAPKLMIYDVSNRPSGVSNRFSGSKSGNTASLTISGLQAEDEADYYCSSYTSISTLVFGGGTKLTVL
As for B1, the binding result was “binds”.

B2: mAb1-7 (antibody, V domains shown)
VH: QVQLQESGPGLVKPSETLSLTCTVSGDSIRSYYWSWIRQPPGKGLEWIGHIYYSGSTNYKPSLKSRATILVDTSKNQFSLKLRSVTAADTAVYYCAREMTGVAGRGWDHWGQGTLVTVSS
VL: ALTQPPSASGTPGQRVTISCSGSSSNIGSNTVNWYQQLPGTAPKLLIFINNQRPSGVPDRFSGSKSGTSASLAISGLQSEDEADYYCTTWDGSLNGYVFGTRTEVTVL
B2: the binding result was “binds”.

B3: mAb1-2 (antibody, V domains shown)
VH: EVQLVESGGGLVQPGGSLRLSCAASGFIFSNYWMSWVRQAPGKGPEWVANIKQDGSANHYVDSVKGRFTISRDNAKNSLYLQMNSLRAEDTAVYYCAREAYQDWNYDYWGQGTLVTVSS
VL: DIQMTQSPSSLSASVGDRVTVTCRASEFISRYLNWYQQKPGKAPKVLIYAASSLQSGVPSRFSGSGSGTDFTLTISSLQPEDFATYYCQQSYSTPYTFGQGTKLEIK
notes: also called Fab1-2 (so named in the dot blot sentence)
With B3, the binding result is “binds”.

B4: mAb3-4 (antibody, V domains shown)
VH: AVESGGGLVKPGGPLRLSCAASGFSLSDNYMTWIRQAPGKGLEWVSYISSSGSFINYADSVKGRFTISRDNAKNSLYLQMNSLRAEDTAVYYCARVLSSGGLTTSWRALWYFDVWGRGTLVTVS
VL: TVVTQEPSFSVSPGGTVTLTCGLTSGSVSTSYYPSWYQQTPGQTPRTLIYSTNIRSSGVPDRFSGSILGNKAALTITGAQADDECDYYCVLYMGSGIWVFGGGTKLTVL
Turning to B4, the binding result was “binds”.

B5: mAb3-6 (antibody, V domains shown)
VH: EVQLVESGGGLVQPGGSLRLSCSASGFHFSSYEMNWVRQAPGKGLEWVSYISSSGTYIDYADSVKGRFTISRDNPANSLYLQMYSLRAEDTAVYYCARRLWFGELPYSYYYGMDVWGQGTTVTVSS
VL: ALTQPASVSGSPGQSITISCTGTSSDIGGYNYVSWYQQHPGKAPELLIFDVSNRPSGVSNRFSGSKSGNTASLTISGLQAEDEADYHCCSYTRTSTVIFGGGTKLTVL
As to B5, the binding result was “binds”.

B6: mAb1-5 (antibody, V domains shown)
VH: EVQLVESGGGLVKPGGSLRLSCAASGFMFSSYSMNWVRQAPGKGLEWVSSISRSDSYIDYADSVKGRFTISRDTAMNVLYLQMDSLRAEDTGVYYCARTHVFNMFREVINDDYYGMDVWGQGTTVTVS
VL: ALTQPASVSGSPGQSITISCTGTSSDFGIYNSVSWYQHHPGKAPKLMIFGVSNRPSGVSNRFSGSKSGNTASLSISGLQAEDEADYYCSSFTARSTVVFGGGTKLTVL
In the case of B6, the binding result is given as “binds”.

B7: mAb3-3 (antibody, V domains shown)
VH: QVQLQESGPGLVKSSETLSLTCTVSGESISSSSHYWGWIRQPPGKGLEFLGNVYYLGSTYYNPSLESRVTILLDTSKNQFSLKVNSVTVADTAVYYCARHGAGSYSGLFFDYWGQGARVIVSS
VL: DIQMTQSPSFVSASVGDRVNITCRASQGINSWLAWYQQKPGKAPKLLIYSASSLQSGVPSRFSGSGSGTDFTLTISTLQPEDFATYYCQQANSFPYTFGQGTKVD
With B7, the binding result is recorded as “binds”.

B8: mAb1-3 (antibody, V domains shown)
VH: VQLVESGGGVVQPGRSLRLSCAASGFSFSSFVFHWVRQAPGKGLEWVAVISYDGSNKNYADSVKGRFTISRDNSKNTLFLQMNSLSADDTAVYYCARGAICSSTTCYLGDSYYFYGMDVWGQGTTVTVSS
VL: LTQPPSVSGAPGQRVTISCTGSRSNIGAGYDVHWYQQLPGTAPKLLIYGNSNRPSGVPDRFSGSKSGTSASLAITGLQTDDEADYYCQSYDSSLSGSVFGGGTKLTVL
In the case of B8, the binding result was “binds”.

B9: mAb3-2 (antibody, V domains shown)
VH: EVQLLESGGGLVQPGGSLRLSCAASGFTFSNYAMSWVRQAPGKGLEWVSLISGSGGSIDYADSVKGRFTISRDNSKNTLYLQMDSLRAEDTAVYYCSKDPIYYDLSGYYAGRIYYFDYWGQGTLVTVSS
VL: EIVMTQSPATLSVSPGDTATLSCRASHSVSRDLAWYQQKPGQAPRLLIYDASTRATGIPARFSGSGSGTEFTLTISSLQSEDFAVYYCQQYINWVTFGPGTKVDIE
For B9, the binding result is given as “binds”.

B10: mAb2-3 (antibody, V domains shown)
VH: VQLVESGGGLVKPGGSLRLSCATSGFTFSDYYMSWIRQAPGKGLEWVSYISSSGSTIYYADSVKGRFTMSRDNAKNSLFLRMNSLRAEDTAVYYCARDQITVDREVIRAHYYYGMDVWGQGTTVTVS
VL: DIQMTQSPSSVSASVGDRVTITCRASQGINSYLAWYQQKPGKAPKLLIYAASSLESGVPSRFSGSGSGTDFTLTISSLQPEDFATYYCQQANSFPLTFGGGTKVDI
Turning to B10, the binding result is “binds”.

B11: mAb2-2 (antibody, V domains shown)
VH: QVQLQESGPGLVKPSVTLSLTCTVSGDSISTYYWSWVRQPPGKGLEWIGYIYYSGNTNYNPSLKSRVTMSVDTSKNQFSLKLNSVTAADTAVYYCARTHHDYGDYRPSYYFDYWGQGTLVTVSS
VL: QSALTQPASVSGSPGQSITISCTGTSSDVGAYDYVSWYQQHPGKAPKLMIYDVSNRPSSGVSNRFSGSKSGNTASLTISGLQAEDEADYYCSSYTSSSTVILGGGTKLTVL
Regarding B11, the binding result is given as “binds”.

B12: mAb1-1 (antibody, V domains shown)
VH: EVQLVESGGGLVKPGGSLRLSCAASGVPFSDAWMNWVRQAPGKGLEWVGRIKSKKDGGTADYAAPVKGRFSISRDDSKKMLYLHMNSLKTEDTAVYYCTTEPSGYCSNGLCYTGNYWGQGTLVTVSS
VL: QPVLTQSSSASASLGSSVKLTCTLSSGHITYIIAWHQQQPGKAPRYLMKLEDSGSYNKGSGVPDRFSGSSSGADRYLTISNLQFEDEADYYCETWDSYTRVFGGGTKLT
As for B12, the binding result is listed as “binds”.

B13: mAb3-1 (antibody, V domains shown)
VH: EVQLLESGGGLVQPGGSLRLSCEASGFTFSRYPMNWVRQAPGKGLEWVSHISASGGTTYYADTVKGRFSISRDNSKNTLYLEMNSLRAEDTAIYFCAKDYPPDEVTMIVVGMPYFDSWGLGTLVSVSS
VL: not shown
B13: the binding result is on record as “binds”.

B14: mAb2-5 (antibody, V domains shown)
VH: EVQLVESGGGLVKPGGSPRLSCAASGFNFGSYSMNWVRQAPGKGLEWVSSISSSSSYIYYADSVKGRFTISRDNAKHSLYLQVNSLRAEDTAVYYCARDPTTYGYNSAWDKKGWYFDLWGRGTLLTVS
VL: VLTQPPSVSAAPGQMVTISCSGSSSNIGNDYISWYQQLPGTAPKLLIYDNNERPSGIPDRFSGSKSGTSATLGITGVQTGDEADYYCGTWDSSLSAWVFGEGTKLTVV
For the molecule B14, the binding result is on record as “binds”.

B15: mAb2-4 (antibody, V domains shown)
VH: EVQLLESGGGLVHPGGSLRLSCAASGFPFSNFAMSWVRQAPGKGLEWVSTISGSSGSTYYADSVRGRFTISRDYSKNTVYLEMNSLRADDTAIYYCAKDRMITFGEVIVKHYDAFEIWGQGTRVAV
VL: DIQMTQSPSSLSASVGDRVTITCRASQTISTNVNWYQQKPGKAPKLLIYAASSLQSGVPSRFSGSGSGTDFTLTISSLQPEDFATFYCQQSYSAPLTFGEGTKV
Turning to B15, the binding result is listed as “binds”.

B16: mAb2-6 (antibody, V domains shown)
VH: VQLLESGGALVQPGGSLRLSCAASGFSFSNYAMSWVRQAPGKGLEWVSTISASGGTTYFADSVKGHFTISRDNSKNTLYLQMDSLRAEDTAVYYCAKDPNYYDLSGYFLGGYYFDYWGQGTLVTVSS
VL: EIVLTQSPGTLSLSPGERATLSCRASQSVRSSYLAWYQQKPGQAPRLLIYGASSRATDIPDRFSGSGSGTDFTLTISRLEPEDFAVYYCQQYGTSPAFGGGTKV
Regarding B16, the binding result was “binds”.

B17: mAb1-4 (antibody, V domains shown)
VH: QVQVVESGAEVKKPGASVKVSCKASGYAFTTYYMHWVRQAPGQGLEWMGLINPSGDSITYAQRFQGRVTMTKDTSTSTVYMELSSLRSEDTAIYYCARDPNVAFYYGSGNYYKDNAMDVWGQGTTVTVSS
VL: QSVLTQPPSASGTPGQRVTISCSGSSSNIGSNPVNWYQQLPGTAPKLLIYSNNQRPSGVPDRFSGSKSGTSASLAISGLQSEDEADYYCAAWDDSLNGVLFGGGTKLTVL
Regarding B17, the binding result is reported as “binds”.

B18: mAb2-1 (antibody, V domains shown)
VH: EVQLLESGGGLVQPGKSLRLSCAASGFSFSNYAMSWVRQAPGKGLEWVSGISGSGGSTNYAESVRGRFTISRDNSKNTLYLEMNSLRVEDTAVYYCAKGMSYYDRSGYFWAKYHYGMDVWGQGITVTVSS
VL: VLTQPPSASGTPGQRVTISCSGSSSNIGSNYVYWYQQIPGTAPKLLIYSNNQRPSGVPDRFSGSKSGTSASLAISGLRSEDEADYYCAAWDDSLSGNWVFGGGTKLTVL
Regarding B18, the binding result is recorded as “binds”.

B19: mAb3-5 (antibody, V domains shown)
VH: EVQLVESGGGLVQPGGSLRLSCAASGFTFSNYGMNWVRQAPGKGLEWVSYISSGGTIYYADSVKGRFTISRDNAKNSVYLQMNSLRAEDTAVYYCARDPAYCGDDCYTIPAHYFDYWGQGTPVTVS
VL: DIQMTQSPSSLSASVGDRVTITCRTSQSISRYLNWYQQKPGKAPKLLIYAASSLQSGVPSRFTGSGSGTDFTLTISSLQPEDFATYYCQQSYSIPPVTFGQGTRVD
As for B19, the binding result is recorded as “binds”.
